From patent US20120172295A1 (INDIANA UNIVERSITY RESEARCH AND TECHNOLOGY, published 2012)
Where two headings read alike, the source gives them in different places. Starred links: 1 amine or outer side, 2 acyl side, 3 side chain; linkers in the order of their positions; H or OH if unused. Positions of bridges follow the written chain, without caps; N, C: chain ends. Non-standard residues stand in square brackets, D forms with d. Groups on a side chain read outwards from the residue. No end group written: not given here. *: point of attachment. γGlu = O=C(O)[C@H](CCC(=O)[*:2])N[*:1]; Palmitoyl = CCCCCCCCCCCCCCCC(=O)*; Aib = CC(C)(N)C(=O)O

Tests used:
Assay in all cases: cell-based or functional assay
[1] = biological target: T1, GIP receptor (UniProt P48546 22-466)
T1 sequence (looked up): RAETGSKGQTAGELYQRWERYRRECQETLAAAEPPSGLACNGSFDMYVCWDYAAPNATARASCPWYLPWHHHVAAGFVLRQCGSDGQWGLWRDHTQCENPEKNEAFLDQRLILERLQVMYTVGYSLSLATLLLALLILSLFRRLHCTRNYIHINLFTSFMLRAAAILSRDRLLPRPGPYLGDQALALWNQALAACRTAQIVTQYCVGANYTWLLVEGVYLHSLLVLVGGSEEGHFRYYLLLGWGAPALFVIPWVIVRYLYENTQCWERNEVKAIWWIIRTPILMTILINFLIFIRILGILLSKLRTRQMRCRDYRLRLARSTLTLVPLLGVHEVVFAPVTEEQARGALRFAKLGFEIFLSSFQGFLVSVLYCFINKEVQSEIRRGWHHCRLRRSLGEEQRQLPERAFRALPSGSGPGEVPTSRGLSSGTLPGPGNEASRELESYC

[2] = biological target: T2, GLP-1 receptor (UniProt P43220 24-463, limits assumed)
[3] = biological target: T3, glucagon receptor (UniProt P47871 26-477, limits assumed)
[4] = biological target: T1, GIP receptor; remark: listed apart in the source
[5] = biological target: T2, GLP-1 receptor; remark: listed apart in the source
[6] = biological target: T3, glucagon receptor; remark: listed apart in the source
[7] = biological target: T1, GIP receptor; remark: listed apart in the source
[8] = biological target: T2, GLP-1 receptor; remark: listed apart in the source
[9] = biological target: T3, glucagon receptor; remark: listed apart in the source
[10] = biological target: T2, GLP-1 receptor; remark: listed apart in the source
[11] = biological target: T3, glucagon receptor; remark: listed apart in the source
[12] = biological target: T1, GIP receptor; remark: listed apart in the source
[13] = biological target: T2, GLP-1 receptor; remark: listed apart in the source
[14] = biological target: T3, glucagon receptor; remark: listed apart in the source
[15] = biological target: T2, GLP-1 receptor; remark: listed apart in the source
[16] = biological target: T2, GLP-1 receptor; remark: listed apart in the source
[17] = biological target: T3, glucagon receptor; remark: listed apart in the source
[18] = biological target: T3, glucagon receptor; remark: listed apart in the source

T3 sequence (P47871 26-477 limits assumed): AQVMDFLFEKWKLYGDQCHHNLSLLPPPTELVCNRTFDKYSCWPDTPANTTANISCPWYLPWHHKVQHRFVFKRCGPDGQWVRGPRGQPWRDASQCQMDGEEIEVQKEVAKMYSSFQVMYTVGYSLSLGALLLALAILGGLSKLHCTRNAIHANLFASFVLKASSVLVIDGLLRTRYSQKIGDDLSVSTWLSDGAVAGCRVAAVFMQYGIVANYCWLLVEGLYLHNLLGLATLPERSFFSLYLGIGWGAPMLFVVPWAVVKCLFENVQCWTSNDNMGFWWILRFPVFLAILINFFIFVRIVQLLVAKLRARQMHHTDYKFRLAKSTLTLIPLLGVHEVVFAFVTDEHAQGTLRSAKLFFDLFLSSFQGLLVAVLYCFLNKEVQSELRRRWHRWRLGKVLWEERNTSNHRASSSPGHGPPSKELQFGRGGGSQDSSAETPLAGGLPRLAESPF

Y[Aib]QGTFISDYSIYLDKQAA[Aib]EFVNWLLAGGPSSGAPPPSK(Palmitoyl)-NH2 [mt-358] was tested, and the “% Relative activity” value [1] was 314%, the “% Relative activity” value [2] was 11.9% and the “% Relative activity” value [3] was 710%.

B1: mt-348 (peptide)
peptide: H[Aib]QGTFTSDYSKYLD[Aib]QAAKEFICWLMNGGPSSGAPPPSK-NH2
modifications: N-terminus assumed
SMILES: CC[C@H](C)[C@H](NC(=O)[C@H](Cc1ccccc1)NC(=O)[C@H](CCC(=O)O)NC(=O)[C@H](CCCCN)NC(=O)[C@H](C)NC(=O)[C@H](C)NC(=O)[C@H](CCC(N)=O)NC(=O)C(C)(C)NC(=O)[C@H](CC(=O)O)NC(=O)[C@H](CC(C)C)NC(=O)[C@H](Cc1ccc(O)cc1)NC(=O)[C@H](CCCCN)NC(=O)[C@H](CO)NC(=O)[C@H](Cc1ccc(O)cc1)NC(=O)[C@H](CC(=O)O)NC(=O)[C@H](CO)NC(=O)[C@@H](NC(=O)[C@H](Cc1ccccc1)NC(=O)[C@@H](NC(=O)CNC(=O)[C@H](CCC(N)=O)NC(=O)C(C)(C)NC(=O)[C@@H](N)Cc1c[nH]cn1)[C@@H](C)O)[C@@H](C)O)C(=O)N[C@@H](CS)C(=O)N[C@@H](Cc1c[nH]c2ccccc12)C(=O)N[C@@H](CC(C)C)C(=O)N[C@@H](CCSC)C(=O)N[C@@H](CC(N)=O)C(=O)NCC(=O)NCC(=O)N1CCC[C@H]1C(=O)N[C@@H](CO)C(=O)N[C@@H](CO)C(=O)NCC(=O)N[C@@H](C)C(=O)N1CCC[C@H]1C(=O)N1CCC[C@H]1C(=O)N1CCC[C@H]1C(=O)N[C@@H](CO)C(=O)N[C@@H](CCCCN)C(N)=O
For B1, the “% Relative activity” value [4] was 0.2%, the “% Relative activity” value [5] was 149% and the “% Relative activity” value [6] was 8.2%. The “% Relative activity” value [7] was 0.15%, the EC50 [7] was 1.76 nM and the “% Relative activity” value [8] was 149%. For the same binder, the EC50 [8] was 3.7 pM, the “% Relative activity” value [9] was 8.16% and the EC50 [9] was 0.433 nM.

B2: Glucagon (1-29a) Aib2 Lys10-Trp-C16 Aib16 Aib20 Cys24 (peptide)
peptide: H[Aib]QGTFTSDK([Trp-Palmitoyl])SKYLD[Aib]RRA[Aib]DFVCWLMNT-NH2
modifications: N-terminus assumed
SMILES: CCCCCCCCCCCCCCCC(=O)N[C@@H](Cc1c[nH]c2ccccc12)C(=O)NCCCC[C@H](NC(=O)[C@H](CC(=O)O)NC(=O)[C@H](CO)NC(=O)[C@@H](NC(=O)[C@H](Cc1ccccc1)NC(=O)[C@@H](NC(=O)CNC(=O)[C@H](CCC(N)=O)NC(=O)C(C)(C)NC(=O)[C@@H](N)Cc1c[nH]cn1)[C@@H](C)O)[C@@H](C)O)C(=O)N[C@@H](CO)C(=O)N[C@@H](CCCCN)C(=O)N[C@@H](Cc1ccc(O)cc1)C(=O)N[C@@H](CC(C)C)C(=O)N[C@@H](CC(=O)O)C(=O)NC(C)(C)C(=O)N[C@@H](CCCNC(=N)N)C(=O)N[C@@H](CCCNC(=N)N)C(=O)N[C@@H](C)C(=O)NC(C)(C)C(=O)N[C@@H](CC(=O)O)C(=O)N[C@@H](Cc1ccccc1)C(=O)N[C@H](C(=O)N[C@@H](CS)C(=O)N[C@@H](Cc1c[nH]c2ccccc12)C(=O)N[C@@H](CC(C)C)C(=O)N[C@@H](CCSC)C(=O)N[C@@H](CC(N)=O)C(=O)N[C@H](C(N)=O)[C@@H](C)O)C(C)C
B2 was tested, and the EC50 [10] was 1.15 nM and the EC50 [11] was 2.06 nM.

With H[Aib]QGTFTSDK([Trp-Palmitoyl])SKYLD[Aib]RRA[Aib]DFVC(PEG 40 kDa)WLMNT-NH2 [Glucagon (1-29a) Aib2 Lys10-Trp-C16 Aib16 Aib20 Cys24-40 kD] the EC50 [10] was 0.6 nM and the EC50 [11] was 2.37 nM.

B3: Peptide 900 (peptide)
peptide: H[Aib]QGTFTSDYSKYLD[Aib]RRAQDFVQWLMNTGPSSGAPPPSK([γGlu-γGlu-Palmitoyl])-NH2
modifications: N-terminus assumed
SMILES: CCCCCCCCCCCCCCCC(=O)N[C@@H](CCC(=O)N[C@@H](CCC(=O)NCCCC[C@H](NC(=O)[C@H](CO)NC(=O)[C@@H]1CCCN1C(=O)[C@@H]1CCCN1C(=O)[C@@H]1CCCN1C(=O)[C@H](C)NC(=O)CNC(=O)[C@H](CO)NC(=O)[C@H](CO)NC(=O)[C@@H]1CCCN1C(=O)CNC(=O)[C@@H](NC(=O)[C@H](CC(N)=O)NC(=O)[C@H](CCSC)NC(=O)[C@H](CC(C)C)NC(=O)[C@H](Cc1c[nH]c2ccccc12)NC(=O)[C@H](CCC(N)=O)NC(=O)[C@@H](NC(=O)[C@H](Cc1ccccc1)NC(=O)[C@H](CC(=O)O)NC(=O)[C@H](CCC(N)=O)NC(=O)[C@H](C)NC(=O)[C@H](CCCNC(=N)N)NC(=O)[C@H](CCCNC(=N)N)NC(=O)C(C)(C)NC(=O)[C@H](CC(=O)O)NC(=O)[C@H](CC(C)C)NC(=O)[C@H](Cc1ccc(O)cc1)NC(=O)[C@H](CCCCN)NC(=O)[C@H](CO)NC(=O)[C@H](Cc1ccc(O)cc1)NC(=O)[C@H](CC(=O)O)NC(=O)[C@H](CO)NC(=O)[C@@H](NC(=O)[C@H](Cc1ccccc1)NC(=O)[C@@H](NC(=O)CNC(=O)[C@H](CCC(N)=O)NC(=O)C(C)(C)NC(=O)[C@@H](N)Cc1c[nH]cn1)[C@@H](C)O)[C@@H](C)O)C(C)C)[C@@H](C)O)C(N)=O)C(=O)O)C(=O)O
For B3, the “% Relative activity” value [12] was 2.89%, the “% Relative activity” value [13] was 383% and the “% Relative activity” value [14] was 560%.

With HSQGTFTSDYSKYLEERRAQDFVQWLMNT-NH2 [E15, E16 Gluc-NH2] the “Percent Potency Relative to Native Ligand” value [15] was 9.2%.

B4: E16K20 Gluc-NH2 Lac (peptide)
peptide: HSQGTFTSDYSKYLDERRAKDFVQWLMNT-NH2
modifications: lactam 16-20; N-terminus assumed
SMILES: CSCC[C@H](NC(=O)[C@H](CC(C)C)NC(=O)[C@H](Cc1c[nH]c2ccccc12)NC(=O)[C@H](CCC(N)=O)NC(=O)[C@@H](NC(=O)[C@H](Cc1ccccc1)NC(=O)[C@H](CC(=O)O)NC(=O)[C@@H]1CCCCNC(=O)CC[C@H](NC(=O)[C@H](CC(=O)O)NC(=O)[C@H](CC(C)C)NC(=O)[C@H](Cc2ccc(O)cc2)NC(=O)[C@H](CCCCN)NC(=O)[C@H](CO)NC(=O)[C@H](Cc2ccc(O)cc2)NC(=O)[C@H](CC(=O)O)NC(=O)[C@H](CO)NC(=O)[C@@H](NC(=O)[C@H](Cc2ccccc2)NC(=O)[C@@H](NC(=O)CNC(=O)[C@H](CCC(N)=O)NC(=O)[C@H](CO)NC(=O)[C@@H](N)Cc2c[nH]cn2)[C@@H](C)O)[C@@H](C)O)C(=O)N[C@@H](CCCNC(=N)N)C(=O)N[C@@H](CCCNC(=N)N)C(=O)N[C@@H](C)C(=O)N1)C(C)C)C(=O)N[C@@H](CC(N)=O)C(=O)N[C@H](C(N)=O)[C@@H](C)O
With B4 the “Percent Potency Relative to Native Ligand” value [16] was 63% and the “Percent Potency Relative to Native Ligand” value [17] was 181%.

HSQGTFTSDYSKYLDSRRAQDFVQWLMNTGPSSGAPPPS (C-terminal amide) [Glucagon-Cex] was tested, and the “cAMP induction EC50” value [18] was 0.25 nM.

For Y[Aib]EGTFTSDYSIYLDKQAA[Aib]EFVNWLLAGGPSSGAPPPSK(Palmitoyl) [mt-261], the “% Relative activity” value [6] was 13.4% and the “% Relative activity” value [3] was 31.6%.

B5: Peptide 901 (peptide)
peptide: H[Aib]QGTFTSDK([γGlu-γGlu-Palmitoyl])SKYLD[Aib]RRAQDFVQWLMNTGPSSGAPPPS-NH2
modifications: N-terminus assumed
SMILES: CCCCCCCCCCCCCCCC(=O)N[C@@H](CCC(=O)N[C@@H](CCC(=O)NCCCC[C@H](NC(=O)[C@H](CC(=O)O)NC(=O)[C@H](CO)NC(=O)[C@@H](NC(=O)[C@H](Cc1ccccc1)NC(=O)[C@@H](NC(=O)CNC(=O)[C@H](CCC(N)=O)NC(=O)C(C)(C)NC(=O)[C@@H](N)Cc1c[nH]cn1)[C@@H](C)O)[C@@H](C)O)C(=O)N[C@@H](CO)C(=O)N[C@@H](CCCCN)C(=O)N[C@@H](Cc1ccc(O)cc1)C(=O)N[C@@H](CC(C)C)C(=O)N[C@@H](CC(=O)O)C(=O)NC(C)(C)C(=O)N[C@@H](CCCNC(=N)N)C(=O)N[C@@H](CCCNC(=N)N)C(=O)N[C@@H](C)C(=O)N[C@@H](CCC(N)=O)C(=O)N[C@@H](CC(=O)O)C(=O)N[C@@H](Cc1ccccc1)C(=O)N[C@H](C(=O)N[C@@H](CCC(N)=O)C(=O)N[C@@H](Cc1c[nH]c2ccccc12)C(=O)N[C@@H](CC(C)C)C(=O)N[C@@H](CCSC)C(=O)N[C@@H](CC(N)=O)C(=O)N[C@H](C(=O)NCC(=O)N1CCC[C@H]1C(=O)N[C@@H](CO)C(=O)N[C@@H](CO)C(=O)NCC(=O)N[C@@H](C)C(=O)N1CCC[C@H]1C(=O)N1CCC[C@H]1C(=O)N1CCC[C@H]1C(=O)N[C@@H](CO)C(N)=O)[C@@H](C)O)C(C)C)C(=O)O)C(=O)O
For B5, the “% Relative activity” value [12] was 8.65%, the “% Relative activity” value [13] was 460% and the “% Relative activity” value [14] was 560%.
